Common to all, as to conditions: both partners purified
The target in experiment [1] is T1, N-terminally tagged P672 (P672_RHIPU), glycosylated (Rhipicephalus pulchellus, UniProt L7MC74 22-125).
T1 construct: source: HEK293F, transiently transfected, purified from culture supernatant (nickel IMAC, size exclusion chromatography)
T1 sequence: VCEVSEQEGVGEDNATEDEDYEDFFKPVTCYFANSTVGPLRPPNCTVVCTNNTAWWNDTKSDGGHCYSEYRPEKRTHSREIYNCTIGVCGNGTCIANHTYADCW
Description: BLI.

The target in experiment [2] is T2, P672 with residues Val-1—Thr-16 truncated (Rhipicephalus pulchellus, UniProt L7MC74 38-125).
T2 sequence: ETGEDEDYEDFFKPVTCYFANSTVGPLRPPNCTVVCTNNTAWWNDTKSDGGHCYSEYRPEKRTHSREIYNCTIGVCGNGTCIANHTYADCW
Nature of the experiment: BLI.

Experiment [3] has as its target T3, partially deglycosylated N-terminally tagged P672 (Rhipicephalus pulchellus, UniProt L7MC74 22-125).
T3 sequence: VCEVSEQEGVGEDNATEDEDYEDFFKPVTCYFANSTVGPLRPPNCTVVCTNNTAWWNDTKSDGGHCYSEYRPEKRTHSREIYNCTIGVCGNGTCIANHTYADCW
Description: BLI.

Experiment [4] deals with T3, partially deglycosylated N-terminally …. Description: native MS.

Some results are limits rather than exact numbers.

B1: CCL1 (ligand, human, UniProt P22362 24-96, looked up)
chain: KSMQVPFSRCCFSFAEQEIPLRAILCYRNTSSICSNEGLIFKLKRGKEACALDTVGWVQRHRKMLRHCPSKRK
For B1, in experiment [1], the binding result is recorded as “binds”.

B2: CCL16 (ligand, human, UniProt O15467 24-120, looked up)
chain: QPKVPEWVNTPSTCCLKYYEKVLPRRLVVGYRKALNCHLPAIIFVTKRNREVCTNPNDDWVQEYIKDPNLPLLPTRNLSTVKIITAKNGQPQLLNSQ
For B2, in experiment [1], the binding result was “binds”.

B3: CCL14 (ligand, human, UniProt Q16627 20-93, looked up)
chain: TKTESSSRGPYHPSECCFTYTTYKIPRQRIMDYYETNSQCSKPGIVFITKRGHSVCTNPSDKWVQDYIKDMKEN
B3 yielded a Kd in experiment [1] of less than 10 nM.

B4: CCL3 (ligand, human, UniProt P10147 24-92, looked up)
chain: SLAADTPTACCFSYTSRQIPQNFIADYFETSSQCSKPGVIFLTKRSRQVCADPSEEWVQKYVSDLELSA
B4: the binding result in experiment [1] is recorded as “binds”.

B5: CCL3L1 (ligand, human, UniProt P16619 24-93, looked up)
chain: APLAADTPTACCFSYTSRQIPQNFIADYFETSSQCSKPSVIFLTKRGRQVCADPSEEWVQKYVSDLELSA
Take B5: the binding result in experiment [1] was “binds”.

B6: CCL11 (ligand)
chain: not shown
In the case of B6, the Kd in experiment [1] is less than 10 nM.

B7: CCL8 (human chemokine panel) (ligand, UniProt P80075 24-99, looked up)
chain: QPDSVSIPITCCFNVINRKIPIQRLESYTRITNIQCPKEAVIFKTKRGKEVCADPKERWVRDSMKHLDQIFQNLKP
notes: also called MCP-2
Regarding B7, the Kd in experiment [2] was 30.4 nM; in experiment [3], 72.5 nM.

B8: human CCL8 (residues Gln-24 to Pro-99), expressed in E. coli (ligand, UniProt P80075 24-99, looked up)
chain: QPDSVSIPITCCFNVINRKIPIQRLESYTRITNIQCPKEAVIFKTKRGKEVCADPKERWVRDSMKHLDQIFQNLKP
notes: also called Purified CCL8
Turning to B8, the “stoichiometry N” value in experiment [4] amounted to 1.

B9: CCL18 (ligand, human, UniProt P55774 21-89, looked up)
chain: AQVGTNKELCCLVYTSWQIPQKFIVDYSETSPQCPKPGVILLTKRGRQICADPNKKWVQKYISDLKLNA
In experiment [1], B9 showed a Kd of less than 10 nM.

B10: CCL7 (ligand)
chain: not shown
notes: also called MCP-3
For the molecule B10, in experiment [1], the binding result was “binds”.

B11: CCL23 (ligand, human, UniProt P55773 22-120, looked up)
chain: RVTKDAETEFMMSKLPLENPVLLDRFHATSADCCISYTPRSIPCSLLESYFETNSECSKPGVIFLTKKGRRFCANPSDKQVQVCMRMLKLDTRIKTRKN
Turning to B11, in experiment [1], the Kd is less than 10 nM.

The record behind these values is paper PMC5912465, “The N-terminal domain of a tick evasin is critical for chemokine binding and neutralization and confers specific binding activity to other evasins” (The Journal of Biological Chemistry, 2018).
